{"source": "patent US20100190701A1", "about": "(INDIANA UNIVERSITY RESEARCH AND TECHNOLOGY, published 2010)", "assay_in_all_cases": "cell-based or functional assay", "key": {"GLP-1 receptor [1]": {"molecular_target": "T1, GLP-1 receptor (UniProt P43220 24-463, limits assumed)"}, "glucagon receptor [2]": {"molecular_target": "T2, glucagon receptor (UniProt P47871 26-477, limits assumed)", "T2 sequence (P47871 26-477 limits assumed)": "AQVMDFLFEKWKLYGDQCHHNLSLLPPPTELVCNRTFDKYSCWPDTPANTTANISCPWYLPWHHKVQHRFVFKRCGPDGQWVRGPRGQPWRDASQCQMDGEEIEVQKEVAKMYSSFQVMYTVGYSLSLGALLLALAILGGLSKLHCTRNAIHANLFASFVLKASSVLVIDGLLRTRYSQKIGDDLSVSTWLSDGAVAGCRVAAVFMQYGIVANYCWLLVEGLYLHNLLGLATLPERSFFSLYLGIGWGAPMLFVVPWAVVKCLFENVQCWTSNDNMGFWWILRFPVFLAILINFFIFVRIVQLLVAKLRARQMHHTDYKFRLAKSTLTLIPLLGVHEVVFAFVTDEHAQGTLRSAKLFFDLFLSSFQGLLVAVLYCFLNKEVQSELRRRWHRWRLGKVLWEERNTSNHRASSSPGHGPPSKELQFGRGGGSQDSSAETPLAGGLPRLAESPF"}, "GLP-1 receptor [3]": {"molecular_target": "T1, GLP-1 receptor", "remark": "listed apart in the source"}, "GLP-1 receptor [4]": {"molecular_target": "T1, GLP-1 receptor", "remark": "listed apart in the source"}, "glucagon receptor [5]": {"molecular_target": "T2, glucagon receptor", "remark": "listed apart in the source"}, "GLP-1 receptor [6]": {"molecular_target": "T1, GLP-1 receptor", "remark": "listed apart in the source"}}, "note": "Read-outs that look alike come from different tables or passages of the source. Bridge positions count the residues as written; N and C are the ends. Square brackets hold non-standard residues; d marks the D form. Ends that are not written are not given here. Nle = CCCC[C@H](N)C(=O)O; Orn = NCCC[C@H](N)C(=O)O; PEG = not defined here; Aib = CC(C)(N)C(=O)O", "data": [{"binder": "H[Aib]QGTFTSDYSKYLDEQAAKEFICWLMNT-NH2", "note": "[Chimera AIB2, Cys24 (SEQ ID NO: 486), parent w/o PEG]", "values": [{"measurement": "% Potency Relative to Native", "setting": "GLP-1 receptor [1]", "value": 161, "unit": "%"}, {"measurement": "% Potency Relative to Native", "setting": "glucagon receptor [2]", "value": 15.4, "unit": "%"}]}, {"binder": "HS[Orn]GTFTSDYSKYLDERRAQDFVQWLMNT-NH2", "note": "[Orn3, E16 Gluc-NH2]", "values": [{"measurement": "cAMP Induction, Percent Potency Relative to Native Ligand", "setting": "GLP-1 receptor [3]", "value": 0.1, "unit": "%"}]}, {"binder": "HSQGTFTSDYSKYLDSRRAQDFVQWLMDGGPSSGAPPPS-NH2", "note": "[-MDGG30 PSSGAPPPS (SEQ ID NO: 525)]", "values": [{"measurement": "EC50", "setting": "GLP-1 receptor [4]", "value": 0.13, "unit": "nM"}, {"measurement": "EC50", "setting": "glucagon receptor [5]", "value": 0.12, "unit": "nM"}]}, {"binder": "HSQGTFTSDYSKYLDERRAKDFVQWLMDGGPSSGAPPPS-NH2", "note": "[E16K20-MDGG30 PSSGAPPPS (SEQ ID NO: 526)]", "values": [{"measurement": "EC50", "setting": "GLP-1 receptor [4]", "value": 0.02, "unit": "nM"}]}, {"binder": "HSQGTFTSDYSKYLDSRRAQDFVQWLVKGGPSSGAPPPS-NH2", "note": "[-VKGG30 PSSGAPPPS (SEQ ID NO: 524)]", "values": [{"measurement": "EC50", "setting": "GLP-1 receptor [4]", "value": 0.21, "unit": "nM"}, {"measurement": "EC50", "setting": "glucagon receptor [5]", "value": 1.16, "unit": "nM"}]}, {"binder": "HS[Nle]GTFTSDYSKYLDERRAQDFVQWLMNT-NH2", "note": "[NLeu3, E16 Gluc-NH2]", "values": [{"measurement": "cAMP Induction, Percent Potency Relative to Native Ligand", "setting": "GLP-1 receptor [3]", "value": 20.6, "unit": "%"}]}, {"binder": "HSQGTFTSDYSKYLDSRRAQDFVQWLMNGGPSSGAPPPS-NH2", "note": "[-MNGG30 PSSGAPPPS (SEQ ID NO: 522)]", "values": [{"measurement": "EC50", "setting": "GLP-1 receptor [4]", "value": 0.31, "unit": "nM"}]}, {"binder": "HAEGTFTSDVSSYLEGQAAKEFIAWLVKGG-NH2", "note": "[GLP-1-VKGG30 (SEQ ID NO: 527)]", "values": [{"measurement": "EC50", "setting": "GLP-1 receptor [4]", "value": 0.025, "unit": "nM"}]}, {"binder": "H[Aib]QGTFTSDYSKYLDEQAAKEFICWLMNT-NH2 (lactam 16-20)", "note": "[Chimera AIB2, Cys24 Lactam (SEQ ID NO: 504), parent w/o PEG]", "values": [{"measurement": "% Potency Relative to Native", "setting": "GLP-1 receptor [1]", "value": 230, "unit": "%"}, {"measurement": "% Potency Relative to Native", "setting": "glucagon receptor [2]", "value": 114, "unit": "%"}]}, {"binder": "H[Aib]QGTFTSDYSKYLDEQAAKEFIC(PEG)WLMNT-NH2 (not fully specified; reading uncertain)", "note": "[Chimera AIB2, Cys24 (SEQ ID NO: 486), parent w/PEG]", "values": [{"measurement": "% Potency Relative to Native", "setting": "GLP-1 receptor [1]", "value": 82.5, "unit": "%"}, {"measurement": "% Potency Relative to Native", "setting": "glucagon receptor [2]", "value": 2.6, "unit": "%"}]}, {"binder": "H[Aib]QGTFTSDYSKYLDEQAAKEFIC(PEG)WLMNT-NH2 (lactam 16-20; not fully specified; reading uncertain)", "note": "[Chimera AIB2, Cys24 Lactam (SEQ ID NO: 504), parent w/PEG]", "values": [{"measurement": "% Potency Relative to Native", "setting": "GLP-1 receptor [1]", "value": 38, "unit": "%"}, {"measurement": "% Potency Relative to Native", "setting": "glucagon receptor [2]", "value": 9.2, "unit": "%"}]}, {"binder": "HSQGTFTSDYSKYLEERRAQDFVQWLMNT-NH2", "note": "[E15, E16 Gluc-NH2]", "values": [{"measurement": "cAMP Induction, Percent Potency Relative to Native Ligand", "setting": "GLP-1 receptor [6]", "value": 9.2, "unit": "%"}]}, {"binder": "HSQGTFTSDYSKYLDSRRAQDFVQWLMNTGPSSGAPPPS (C-terminal amide)", "note": "[Glucagon-Cex]", "values": [{"measurement": "EC50", "setting": "glucagon receptor [5]", "value": 0.14, "unit": "nM"}]}, {"binder": "HSQGTFTSDYSKYLDSRRAQDFVQWLMKGGPSSGAPPPS-NH2", "note": "[-MKGG30 PSSGAPPPS (SEQ ID NO: 523)]", "values": [{"measurement": "EC50", "setting": "GLP-1 receptor [4]", "value": 0.8, "unit": "nM"}, {"measurement": "EC50", "setting": "glucagon receptor [5]", "value": 0.61, "unit": "nM"}]}]}
